Tests used:
[1] = Fluorescence measurements of TNP-ATP binding, wild type rIDE and distal site mutants; conditions: hyperbolic one site binding fit, 20 °C
Description: The fluorescence increase on binding of (2,4,6-trinitrophenyl)ATP (TNP-ATP) is plotted for the indicated IDE constructs as a function of ligand concentration. Data were fit to a hyperbolic one site binding mechanism.
Fluorescence emission spectra of 10 μM TNP-ATP in […] Tris-HCl, pH7.4, was measured in the presence of 1.5 μM of each wild type IDE and the indicated IDE distal mutants. Fluorescence spectra were recorded with a λexc=403 nm on a Perkin-Elmer LS55 Luminescence Spectrometer.
Fluorescence measurements of TNP-ATP binding were performed on a Perkin-Elmer LS55 Luminescence Spectrometer. Titrations were monitored at an excitation wavelength of 403 nm and emission wavelength of 547 nm. The temperature of the sample was maintained at 20±0.1° C. by circulating thermostatically controlled water through the cuvette holder. Assays were conducted in 200 μL reaction mixtures containing 50 mM Tris-HCl, pH, 7.4, 10 μM Abz-[…]-EDDnp (SEQ ID NO:3) as substrate, and 0.5 μg wild type rIDE, 2.3 μg rIDE-V3605, 2.0 μg rIDE-I3745 or 1.62 μg rIDEY609F and the indicated concentration of ATP. The fluorescence of TNP-ATP was subtracted from the total fluorescence of enzyme+TNP-ATP to yield specific fluorescence enhancement (ΔF).

Saccharomyces cerevisiae = assay: IDE activity assay in yeast, serial dilution mating test; type: cell-based; conditions: MATa cells deficient for Axl1p and Ste23p, plasmid-encoded IDE
Description: Panel A depicts immunoblot of yeast-expressed IDE and IDE^K898A,K899A,S901A. Equivalent percentage amounts of total cellular extracts from yeast containing an empty expression vector or plasmids encoding IDE or the IDE^K898A,K899A,S901A mutant were analyzed by SDS-PAGE and immunoblotting using an IDE-specific antibody. […] An excess of MATa yeast were mixed with decreasing numbers of MATa cells deficient for Axl1p and Step 23p that were transformed with either an empty expression vector or a vector encoding IDE or IDE^K898A,K899A,S901A as indicated. Mating, which leads to colony growth, is dependent on production of mature a-factor pheromone by plasmid-encoded IDE. […] Concentrated samples of a-factor recovered from yeast bearing the indicated expression vector were spotted at the indicated dilutions on a lawn of RC757 MATa cells, which undergo growth arrest upon exposure to a-factor pheromone. […]
The assays take advantage of the ability of IDE, in lieu of the yeast M16 metallopeptidases Axl1p and Step 23p, to participate in the proteolytic maturation of yeast a-factor mating pheromone. […] Growth of diploid colonies, indicative of mating, was scored 3 days after incubation of plates at 30° C. […] Results of mating tests and halo assays were recorded by scanning plates with a Microtek flatbed scanner and importing digitized images into Photoshop and PowerPoint.

B1: IDE: Native rat insulin degrading enzyme (SEQ ID NO:1), expressed as hexahistidine fusion protein in Sf9 insect cells (protein, listed as Rattus norvegicus)
chain: MRNGLVWLLHPALPSTLHSILGARPPPVKRLCGFPKQIYSTMNNPAIQRIEDHIVKSPEDKREYRGLELANGIKVLLISDPTTDKSSAALDVHIGSLSDPPNIPGLSHFCEHMLFLGTKKYPKENEYSQFLSEHAGSSNAFTSGEHTNYYFDVSHEHLEGALDRFAQFFLCPLFDASCKDREVNAVDSEHEKNVMNDAWRLFQLEKATGNPKHPFSKFGTGNKYTLETRPNQEGIDVREELLKFHSTYYSSNLMAICVLGRESLDDLTNLVVKLFSEVENKNVPLPEFPEHPFQEEHLKQLYKIVPIKDIRNLYVTFPIPDLQQYYKSNPGHYLGHLIGHEGPGSLLSELKSKGWVNTLVGGQKEGARGFMFFIINVDLTEEGLLHVEDIILHMFQYIQKLRAEGPQEWVFQECKDLNAVAFRFKDKERPRGYTSKIAGKLHYYPLNGVLTAEYLLEEFRPDLIDMVLDKLRPENVRVAIVSKSFEGKTDRTEQWYGTQYKQEAIPEDVIQKWQNADLNGKFKLPTKNEFIPTNFEILALEKDATPYPALIKDTAMSKLWFKQDDKFFLPKACLNFEFFSPFAYVDPLHCNMAYLYLELLKDSLNEYAYAAELAGLSYDLQNTIYGMYLSVKGYNDKQPILLKKITEKMATFEIDKKRFEIIKEAYMRSLNNFRAEQPHQHAMYYLRLLMTEVAWTKDELKEALDDVTLPRLKAFIPQLLSRLHIEALLHGNITKQAALGVMQMVEDTLIEHAHTKPLLPSQLVRYREVQLPDRGWFVYQRRNEVHNNCGIEIYYQTDMQSTSENMFLELFCQIISEPCFNTLRTKEQLGYIVFSGPRRANGIQGLRFIIQSEKPPHYLESRVEAFLITMEKAIEDMTEEAFQKHIQALAIRRLDKPKKLSAECAKYWGEIISQQYNYDRDNIEVAYLKTLSKDDIIKFYKEMLAVDAPRRHKVSVHVLAREMDSCPVVGEFPSQNDINLSEAPPLPQPEVIHNMTEFKRGLPLFPLVKPHINFMAAKL
modifications: hexahistidine tag; wild-type Insulin Degrading Enzyme (IDE) from rat
- Kd [1]: 1 ± 0.1 µM
- mating promoted in yeast (Saccharomyces cerevisiae): promoted mating to a greater extent
